Test results from PMC9094124.

How the values were obtained:
[1] = target: c-JO4 (cGMP-compliant JO4 junction opener protein) (human adenovirus serotype 3); experiment: SDS-PAGE, not boiled and not reduced; 4-15% gradient gel, running buffer with 0.1% SDS, 1 ug protein, sample not boiled and not reduced
[2] = target: c-JO4 (cGMP-compliant JO4 junction opener protein) (human adenovirus serotype 3); experiment: SEC + other: negative-stain electron microscopy; SEC on Superdex 200 Increase 10/300 in TBS, 1 mL/min; EM with 1% sodium silicotungstate pH 7.0, protein at 0.1 mg/ml

## c-JO4 (cGMP-compliant JO4 junction opener protein) (domain or fragment)
[1]
  stoichiometry N: 3
[2]
  stoichiometry N: 6
